The target in experiment [1] is T1, human PSMA (prostate specific membrane antigen), full length (human, UniProt Q04609 1-750).
T1 construct: On LNCaP or C4-2B cells (endogenous) or transduced HEK293F cells; also called FOLH1_HUMAN; hPSMA
Description: flow cytometry cell binding assay, bispecific antibody titrated on LNCaP cells (human PSMA). The procedure: (§1) PSMA×CD3 bispecific antibodies were tested for binding to PSMA positive cell lines LNCAP, human PSMA-HEK, Chimpanzee-PSMA-HEK and Cynomolgous monkey PSMA-HEK. To assess the binding capabilities of the PSMA bispecific antibodies, the cell-binding assay was utilized (described previously). Briefly, PSMA expressing tumor cells are bound by bispecific antibodies at known concentrations and the bound antibody is detected by an anti-human kappa light chain PE conjugated detection reagent (Invitrogen). The Mean Fluorescents Intensity (MFI) is the measure of bound bispecific antibody. The MFI is converted to a relative EC₅₀. EC₅₀ is a commonly used dose-response curve, where the half maximal effective concentration or the EC₅₀ point is defined as the inflection point of the curve. EC₅₀ s were determined by measuring cell bound bispecific and known concentrations. […] The dose response curves were then diluted down to that of background or no bispecific binding. The inflection point of this curve reflects the EC₅₀ point. The calculated EC₅₀ is determined by taking the ug/ml amount of bispecific antibody at the EC₅₀ point and converting it to a molarity value based on the MW of the bispecific antibody. Bispecific antibodies were normalized for protein concentration and then incubated with the same number of cells expressing either human or cyno PSMA. The MFI at each concentration was collected by flow cytometry and plotted as a function of concentration. Data was transformed via log 10 and then plotted. Nonlinear regression of binding curves was done to determine EC₅₀ s. These relative values were used for ranking PSMA binding to target cells.
PSMA×CD3 bispecific antibodies were tested for binding to PSMA positive cell line, LNCAP, to PSMA negative cell line, PC3. To assess the binding capabilities of the PSMA bispecific antibodies, the cell-binding assay was utilized (described previously). Bispecific antibodies were normalized for protein concentration and then incubated with the same number of cells expressing either human or cyno PSMA. The MFI at each concentration was collected by flow cytometry and plotted as a function of concentration.
In general terms: Flow cytometry measures light scatter and fluorescence of single cells or particles in a stream.

Experiment [2] concerns the target T1, human PSMA (prostate specific membrane …). Description: flow cytometry, bispecific antibody titrated on LNCaP cells (human PSMA), anti-human kappa light chain PE. The method, then:
as §1

B1: PS3B27 (bispecific antibody, human IgG4 S228P, kappa, lambda, F234A L235A)
heavy 1: not shown
light 1: not shown
heavy 2: EVQLVESGGGLVQPGGSLRLSCAASGFTFNTYAMNWVRQAPGKGLEWVARIRSKYNNYATYYAASVKGRFTISRDDSKNSLYLQMNSLKTEDTAVYYCARHGNFGNSYVSWFAYWGQGTLVTVSSASTKGPSVFPLAPCSRSTSESTAALGCLVKDYFPEPVTVSWNSGALTSGVHTFPAVLQSSGLYSLSSVVTVPSSSLGTKTYTCNVDHKPSNTKVDKRVESKYGPPCPPCPAPEAAGGPSVFLFPPKPKDTLMISRTPEVTCVVVDVSQEDPEVQFNWYVDGVEVHNAKTKPREEQFNSTYRVVSVLTVLHQDWLNGKEYKCKVSNKGLPSSIEKTISKAKGQPREPQVYTLPPSQEEMTKNQVSLTCLVKGFYPSDIAVEWESNGQPENNYKTTPPVLDSDGSFLLYSKLTVDKSRWQEGNVFSCSVMHEALHNHYTQKSLSLSLGK
light 2: QTVVTQEPSLTVSPGGTVTLTCRSSTGAVTTSNYANWVQQKPGQAPRGLIGGTNKRAPGTPARFSGSLLGGKAALTLSGVQPEDEAEYYCALWYSNLWVFGGGTKLTVLGQPKAAPSVTLFPPSSEELQANKATLVCLISDFYPGAVTVAWKADSSPVKAGVETTTPSKQSNNKYAASSYLSLTPEQWKSHRSYSCQVTHEGSTVEKTVAPTECS
notes: IgG4 PAA; PSMA arm chains first, then CD3 arm (F405L, R409K); also called PSMB127 x CD3B219; PS2B27
Broadly, the EC50 (read off the curve) is the concentration at which the effect is half-maximal. Lower therefore signals higher potency in that assay. As to B1, the “EC50 (read off the curve)” value in experiment [1] was roughly 7 nM.

B2: PS3B23 (bispecific antibody, human IgG4 S228P, kappa, lambda, F234A L235A)
heavy 1: not shown
light 1: not shown
heavy 2: EVQLVESGGGLVQPGGSLRLSCAASGFTFNTYAMNWVRQAPGKGLEWVARIRSKYNNYATYYAASVKGRFTISRDDSKNSLYLQMNSLKTEDTAVYYCARHGNFGNSYVSWFAYWGQGTLVTVSSASTKGPSVFPLAPCSRSTSESTAALGCLVKDYFPEPVTVSWNSGALTSGVHTFPAVLQSSGLYSLSSVVTVPSSSLGTKTYTCNVDHKPSNTKVDKRVESKYGPPCPPCPAPEAAGGPSVFLFPPKPKDTLMISRTPEVTCVVVDVSQEDPEVQFNWYVDGVEVHNAKTKPREEQFNSTYRVVSVLTVLHQDWLNGKEYKCKVSNKGLPSSIEKTISKAKGQPREPQVYTLPPSQEEMTKNQVSLTCLVKGFYPSDIAVEWESNGQPENNYKTTPPVLDSDGSFLLYSKLTVDKSRWQEGNVFSCSVMHEALHNHYTQKSLSLSLGK
light 2: QTVVTQEPSLTVSPGGTVTLTCRSSTGAVTTSNYANWVQQKPGQAPRGLIGGTNKRAPGTPARFSGSLLGGKAALTLSGVQPEDEAEYYCALWYSNLWVFGGGTKLTVLGQPKAAPSVTLFPPSSEELQANKATLVCLISDFYPGAVTVAWKADSSPVKAGVETTTPSKQSNNKYAASSYLSLTPEQWKSHRSYSCQVTHEGSTVEKTVAPTECS
notes: IgG4 PAA; PSMA arm chains first, then CD3 arm (F405L, R409K); also called PSMB123 x CD3B219
Consider B2, for which the binding result in experiment [2] is “binds”.

(Values after patent US20200024360A1 (Janssen / Centocor, published 2020).)
